Test results reported in publication PMC3810412.

T1: delta opioid receptor (Homo sapiens), P41143
T1 chain: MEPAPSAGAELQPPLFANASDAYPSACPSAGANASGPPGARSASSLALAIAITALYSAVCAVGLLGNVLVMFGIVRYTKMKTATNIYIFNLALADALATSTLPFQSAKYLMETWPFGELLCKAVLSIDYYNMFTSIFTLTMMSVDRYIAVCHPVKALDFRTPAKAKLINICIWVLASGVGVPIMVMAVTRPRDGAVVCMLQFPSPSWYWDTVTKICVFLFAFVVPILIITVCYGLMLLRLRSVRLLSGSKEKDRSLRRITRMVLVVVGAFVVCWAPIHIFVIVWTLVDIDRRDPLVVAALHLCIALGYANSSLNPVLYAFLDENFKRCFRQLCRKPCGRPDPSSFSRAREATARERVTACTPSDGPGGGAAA


Biological target: T1, delta opioid receptor (Homo sapiens), …
Assay: radioligand competition
Conditions: modification not given
In the case of YAGFMPLW [ligand 5], the Ki is reported as 13 nM.
In the case of YAGFMALW [ligand 2], the Ki is reported as 25 nM.
Work on YAGFMW [ligand 7] yielded a Ki of 2.9 nM.
With YAGFLW [ligand 8] the Ki was 0.6 nM.
